Assays:
[1] = test system: leaf surface of potato leaves; assay: VHH binding to non-fixed leaf discs, potato; parameters: species or system potato (variety Desiree); conditions: 5 μg/ml, detection with anti-histidine Alexa-488
Procedure: VHH binding to non-fixed leaf discs of potato (variety Desiree), black nightshade, grass, wheat or azalea was investigated. For comparison, binding of CBM3a to non-fixed leaf discs of potato (variety Desiree) was analyzed in parallel. Leaf discs were prepared by punching a fresh potato leaf with a 5 mm belt hole puncher tool. Leaf discs were put immediately in wells of a 96-well plate containing 200 μl per well 5% MPBS or PBS, and incubated for 30 minutes. Leaf discs were transferred to solutions containing 5 μg/ml VHH antibody fragment, respectively, 5 μg/ml CBM3a in 2% MPBS or PBS and incubated for 60-90 minutes. Unbound VHH or CBM3a proteins were removed by washing three times with 2% MPBS or PBS. Bound VHH or CBM3a proteins were detected with incubation with monoclonal mouse anti-histidine antibodies directly conjugated with Alexa-488 fluorescent dye (Abd Serotec) in 1% MPBS for 1 hour. Unbound antibodies were removed by washing three times with PBS. Leaf discs were put on glass slides, covered with cover slips, and analyzed by microscopy or on a macrozoom microscope system (Nikon) or a SP5 confocal microscope system (Leica).

gum arabic = assay: VHH binding to gum arabic in ELISA; parameters: species or system acacia tree
Procedure: Titration of VHH antibody fragments was performed on ELISA plates (Maxisorp, Nunc) coated with 100 μl per well 100 μg/ml gum arabic in 50 mM carbonate pH 9.6. Plates were coated at 4° C. overnight and coating was continued at room temperature for 1 hour on the next day. Plates were washed three times with PBS/0.05%-TWEEN®-20 and blocked with 5% skimmed milk in PBS for 1 hour. Four-fold serial dilutions of purified VHH antibody fragments were prepared in 1% MPBS/0.05%-TWEEN®-20 in polypropylene 96-well plates. Antibody concentrations ranged from 3 μg/ml to 12 ng/ml. Antibody dilutions were transferred to the gum arabic-coated plates and VHH antibody fragments were allowed to bind for 1 hour at room temperature. Bound VHH were detected with sequential incubations with monoclonal mouse anti-histidine antibodies (Abd Serotec) and rabbit anti-mouse IgG whole molecule antibodies conjugated with alkaline phosphatase (RaM/AP) (Sigma) in 1% MPBS/0.05%-TWEEN®-20. Unbound antibodies were removed by washing three times with PBS/0.05%-TWEEN®-20 after each antibody incubation. The plates were washed an additional two times with PBS and 100 μl pNPP disodium hexahydrate substrate (Sigma) was added to each well. The absorbance at 405 nm was measured and plotted as function of antibody concentration (see Table 1).

potato lectin = target: T1, potato lectin (Solanum tuberosum, UniProt Q9S8M0); assay: VHH binding to potato lectin in ELISA; conditions: Table 2; Blank (no antigen coating); VHH 3 μg/ml
T1 construct: purchased Sigma
T1 sequence (Q9S8M0 whole entry, looked up): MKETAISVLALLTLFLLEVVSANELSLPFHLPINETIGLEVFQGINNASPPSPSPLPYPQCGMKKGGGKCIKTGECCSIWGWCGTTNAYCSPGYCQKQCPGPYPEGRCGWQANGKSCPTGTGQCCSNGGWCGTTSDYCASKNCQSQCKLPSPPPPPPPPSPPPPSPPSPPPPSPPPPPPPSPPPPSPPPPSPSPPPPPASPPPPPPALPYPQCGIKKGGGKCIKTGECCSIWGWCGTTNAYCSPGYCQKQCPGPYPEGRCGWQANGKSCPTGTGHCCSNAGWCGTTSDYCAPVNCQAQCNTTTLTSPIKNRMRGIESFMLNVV
Procedure: ELISA plates (Maxisorp, Nunc) coated with 100 μl per well 100 μg/ml potato lectin (Sigma) in PBS were coated at 4° C. overnight and coating was continued at room temperature for 1 hour on the next day. Plates were washed three times with PBS/0.05%-TWEEN®-20 and blocked with 5% skimmed milk in PBS for 1 hour. VHH (3 μg/ml) were transferred to the potato lectin-coated plates and VHH antibody fragments were allowed to bind for 1 hour at room temperature. Bound VHH were detected with sequential incubations with monoclonal mouse anti-histidine antibodies (Abd Serotec) and rabbit anti-mouse IgG whole molecule antibodies conjugated with alkaline phosphatase (RaM/AP) (Sigma) in 1% MPBS/0.05%-TWEEN®-20. Unbound antibodies were removed by washing three times with PBS/0.05%-TWEEN®-20 after each antibody incubation. The plates were washed an additional two times with PBS and 100 μl pNPP disodium hexahydrate substrate (Sigma) was added to each well and the absorbance at 405 nm was measured (see Table 2).

B1: VHH 5D4: VHH sequence; SEQ ID NO:20 by order of the list (protein, listed as Lama glama)
VHH: QVQLQESGGGLVQPGGSLRLSCAASGFDMRRFGIGWFRQVAGKEREGVSCSNVHDGTTYYTNDVKGRFTIVRDNTKNMLYLQMNKLRPEDTAVYSCATTDCEATAWGTYRGYFGQGTQVTVSS
modifications: 5D4
binding to native potato leaf surface (fluorescence microscopy) [1]: binding leaf surface, stomata, glandular trichomes, and leaf hairs
binding to native potato leaf surface (fluorescence microscopy) ([1]; listed as 5D4): clearly binding to trichomes, stomata and cuticle
absorbance at 405 nm (gum arabic; Table 2, gum arabic coating, VHH 3 μg/ml): 0.530
absorbance at 405 nm (gum arabic; [VHH] 3 μg/ml (200 nM), gum arabic − (well without gum arabic)): 0.075
absorbance at 405 nm (potato lectin): 0.072

Reference: patent US8598081B2, “Specific delivery of agrochemicals” (priority 2010, dated 2013)
